Reference: the supplement of paper PMC10065799, “High-throughput profiling of sequence recognition by tyrosine kinases and SH2 domains using bacterial peptide display” (eLife, 2023)

Columns and labels:
c-Src SH2 = experiment: SH2 binding enrichment of the phosphorylated peptide, bacterial display (enrichment ratio); higher = better substrate or ligand; peptides without Tyr show the background
Grb2 SH2 = Grb2 SH2 (UniProt P62993); experiment: as above
SHP2-C SH2 = experiment: as above
MERTK = MERTK (UniProt Q12866); experiment: phosphorylation enrichment, bacterial display (enrichment ratio); higher = better substrate or ligand; peptides without Tyr show the background
Fer (mouse) = experiment: as above
c-Abl (mouse) = experiment: as above
c-Src = experiment: as above
FGFR1 = FGFR1 (UniProt P11362); experiment: as above
EPHB1 = EPHB1 (UniProt P54762); experiment: as above
Fyn = Fyn (UniProt P06241); experiment: as above
Hck = Hck (UniProt P08631); experiment: as above
EPHB2 = EPHB2 (UniProt P29323); experiment: as above
AncSZ = experiment: as above
Fes = Fes (UniProt P07332); experiment: as above
FGFR3 = FGFR3 (UniProt P22607); experiment: as above
Jak2 = Jak2 (UniProt O60674); experiment: as above
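Throughout, for SH2 binding enrichment of the phosphorylated peptide, bacterial display: peptide library displayed on the E. coli surface as eCPX fusions, selected cells deep-sequenced, score is each peptide's frequency after selection divided by its frequency in the input.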
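Throughout, for phosphorylation enrichment, bacterial display: 11-residue human phosphosite peptides and single-mutation variants displayed on the E. coli surface, counted by deep sequencing, each peptide's frequency after selection divided by its frequency in the unselected input library; frequency after pTyr selection over input frequency; kinase dosed for 20-30% of maximal phosphorylation in three min.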

EPHB1, sequence (P54762 whole entry, looked up): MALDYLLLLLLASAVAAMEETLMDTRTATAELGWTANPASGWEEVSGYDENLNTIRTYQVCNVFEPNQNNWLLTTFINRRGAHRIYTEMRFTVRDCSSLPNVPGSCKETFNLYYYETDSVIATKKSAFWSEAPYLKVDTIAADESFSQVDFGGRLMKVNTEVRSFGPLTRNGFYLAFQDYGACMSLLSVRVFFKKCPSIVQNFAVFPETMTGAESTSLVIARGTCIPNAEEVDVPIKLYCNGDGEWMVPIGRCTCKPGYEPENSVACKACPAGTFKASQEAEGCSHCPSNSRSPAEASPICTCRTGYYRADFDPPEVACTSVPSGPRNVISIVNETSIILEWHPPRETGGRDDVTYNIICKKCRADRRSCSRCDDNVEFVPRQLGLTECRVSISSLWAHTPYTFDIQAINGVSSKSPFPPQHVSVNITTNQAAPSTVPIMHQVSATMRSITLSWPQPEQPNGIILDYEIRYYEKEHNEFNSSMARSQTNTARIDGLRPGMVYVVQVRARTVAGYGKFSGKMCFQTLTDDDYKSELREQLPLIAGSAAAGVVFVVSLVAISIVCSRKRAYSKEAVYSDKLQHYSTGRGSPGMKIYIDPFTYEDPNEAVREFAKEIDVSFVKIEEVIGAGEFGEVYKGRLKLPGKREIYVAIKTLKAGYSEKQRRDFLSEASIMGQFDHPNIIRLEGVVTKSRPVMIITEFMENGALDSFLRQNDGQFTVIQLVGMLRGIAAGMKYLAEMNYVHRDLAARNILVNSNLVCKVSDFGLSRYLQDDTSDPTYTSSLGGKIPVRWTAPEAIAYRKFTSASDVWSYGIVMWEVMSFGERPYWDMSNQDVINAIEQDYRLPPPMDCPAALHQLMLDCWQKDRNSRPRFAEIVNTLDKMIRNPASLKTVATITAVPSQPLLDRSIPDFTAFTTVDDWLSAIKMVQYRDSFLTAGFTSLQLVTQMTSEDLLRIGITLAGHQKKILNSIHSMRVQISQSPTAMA
EPHB2, sequence (P29323 whole entry, looked up): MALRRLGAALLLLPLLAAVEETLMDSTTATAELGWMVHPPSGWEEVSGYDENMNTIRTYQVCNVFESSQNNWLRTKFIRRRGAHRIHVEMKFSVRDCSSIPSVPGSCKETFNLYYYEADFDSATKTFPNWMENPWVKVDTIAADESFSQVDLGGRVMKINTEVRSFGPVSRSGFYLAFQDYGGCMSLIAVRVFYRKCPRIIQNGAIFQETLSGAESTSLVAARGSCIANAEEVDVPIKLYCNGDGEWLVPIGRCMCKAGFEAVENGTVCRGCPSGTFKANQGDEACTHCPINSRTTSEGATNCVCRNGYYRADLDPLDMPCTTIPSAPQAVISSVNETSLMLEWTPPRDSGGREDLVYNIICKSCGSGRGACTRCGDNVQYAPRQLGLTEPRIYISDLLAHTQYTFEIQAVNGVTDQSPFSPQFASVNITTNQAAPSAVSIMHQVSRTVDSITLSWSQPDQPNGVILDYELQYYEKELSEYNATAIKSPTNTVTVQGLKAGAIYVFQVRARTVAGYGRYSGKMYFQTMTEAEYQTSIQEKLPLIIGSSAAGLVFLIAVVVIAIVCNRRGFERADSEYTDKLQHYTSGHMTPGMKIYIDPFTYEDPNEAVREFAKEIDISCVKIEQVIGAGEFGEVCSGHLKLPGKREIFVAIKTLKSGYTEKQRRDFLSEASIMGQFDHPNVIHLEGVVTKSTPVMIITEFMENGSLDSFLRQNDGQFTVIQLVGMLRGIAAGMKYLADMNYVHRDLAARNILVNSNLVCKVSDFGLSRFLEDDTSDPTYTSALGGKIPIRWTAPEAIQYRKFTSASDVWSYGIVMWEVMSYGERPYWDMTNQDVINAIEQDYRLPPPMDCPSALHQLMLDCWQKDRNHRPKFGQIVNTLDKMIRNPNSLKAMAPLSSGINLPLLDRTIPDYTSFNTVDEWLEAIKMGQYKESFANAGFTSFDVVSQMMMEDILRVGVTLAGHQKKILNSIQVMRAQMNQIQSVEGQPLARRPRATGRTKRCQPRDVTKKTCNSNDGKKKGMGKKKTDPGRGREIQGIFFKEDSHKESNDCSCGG
Hck, sequence (P08631 whole entry, looked up): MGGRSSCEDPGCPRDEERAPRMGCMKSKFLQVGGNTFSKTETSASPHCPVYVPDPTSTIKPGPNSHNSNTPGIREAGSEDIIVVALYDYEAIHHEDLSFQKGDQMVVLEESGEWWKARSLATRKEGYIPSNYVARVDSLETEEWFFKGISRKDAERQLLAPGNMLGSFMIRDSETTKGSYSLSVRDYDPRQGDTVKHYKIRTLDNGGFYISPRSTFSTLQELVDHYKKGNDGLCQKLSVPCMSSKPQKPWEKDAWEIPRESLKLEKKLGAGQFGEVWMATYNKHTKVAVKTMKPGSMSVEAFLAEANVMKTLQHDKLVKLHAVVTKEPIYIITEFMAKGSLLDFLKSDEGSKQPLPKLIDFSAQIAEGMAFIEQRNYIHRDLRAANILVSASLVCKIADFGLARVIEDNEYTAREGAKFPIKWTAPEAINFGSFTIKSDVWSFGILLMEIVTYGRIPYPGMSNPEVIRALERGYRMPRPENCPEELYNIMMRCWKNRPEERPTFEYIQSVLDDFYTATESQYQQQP
FGFR1, sequence (P11362 whole entry, looked up): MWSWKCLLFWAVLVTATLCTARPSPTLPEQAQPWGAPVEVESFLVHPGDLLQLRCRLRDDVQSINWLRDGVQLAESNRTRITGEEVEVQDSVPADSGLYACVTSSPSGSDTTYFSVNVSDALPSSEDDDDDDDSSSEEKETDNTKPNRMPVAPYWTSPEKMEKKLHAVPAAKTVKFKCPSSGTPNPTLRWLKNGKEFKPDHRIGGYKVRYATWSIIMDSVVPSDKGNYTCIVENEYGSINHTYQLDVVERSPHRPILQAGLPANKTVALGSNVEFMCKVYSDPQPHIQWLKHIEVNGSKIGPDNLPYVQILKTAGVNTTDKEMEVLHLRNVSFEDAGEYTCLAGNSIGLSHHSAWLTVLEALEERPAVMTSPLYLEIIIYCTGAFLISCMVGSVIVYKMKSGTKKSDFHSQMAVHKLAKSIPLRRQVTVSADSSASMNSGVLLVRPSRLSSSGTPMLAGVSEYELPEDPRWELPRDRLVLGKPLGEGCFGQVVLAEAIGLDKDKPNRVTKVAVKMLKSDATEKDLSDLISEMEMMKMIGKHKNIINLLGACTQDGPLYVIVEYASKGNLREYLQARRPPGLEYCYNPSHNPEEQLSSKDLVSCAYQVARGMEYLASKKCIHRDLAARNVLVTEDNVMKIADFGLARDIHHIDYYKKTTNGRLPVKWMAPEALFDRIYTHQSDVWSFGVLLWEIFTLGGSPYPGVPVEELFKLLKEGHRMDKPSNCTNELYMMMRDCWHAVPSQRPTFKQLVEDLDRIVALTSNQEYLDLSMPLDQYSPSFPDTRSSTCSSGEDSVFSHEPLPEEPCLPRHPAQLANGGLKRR
MERTK, sequence (Q12866 whole entry, looked up): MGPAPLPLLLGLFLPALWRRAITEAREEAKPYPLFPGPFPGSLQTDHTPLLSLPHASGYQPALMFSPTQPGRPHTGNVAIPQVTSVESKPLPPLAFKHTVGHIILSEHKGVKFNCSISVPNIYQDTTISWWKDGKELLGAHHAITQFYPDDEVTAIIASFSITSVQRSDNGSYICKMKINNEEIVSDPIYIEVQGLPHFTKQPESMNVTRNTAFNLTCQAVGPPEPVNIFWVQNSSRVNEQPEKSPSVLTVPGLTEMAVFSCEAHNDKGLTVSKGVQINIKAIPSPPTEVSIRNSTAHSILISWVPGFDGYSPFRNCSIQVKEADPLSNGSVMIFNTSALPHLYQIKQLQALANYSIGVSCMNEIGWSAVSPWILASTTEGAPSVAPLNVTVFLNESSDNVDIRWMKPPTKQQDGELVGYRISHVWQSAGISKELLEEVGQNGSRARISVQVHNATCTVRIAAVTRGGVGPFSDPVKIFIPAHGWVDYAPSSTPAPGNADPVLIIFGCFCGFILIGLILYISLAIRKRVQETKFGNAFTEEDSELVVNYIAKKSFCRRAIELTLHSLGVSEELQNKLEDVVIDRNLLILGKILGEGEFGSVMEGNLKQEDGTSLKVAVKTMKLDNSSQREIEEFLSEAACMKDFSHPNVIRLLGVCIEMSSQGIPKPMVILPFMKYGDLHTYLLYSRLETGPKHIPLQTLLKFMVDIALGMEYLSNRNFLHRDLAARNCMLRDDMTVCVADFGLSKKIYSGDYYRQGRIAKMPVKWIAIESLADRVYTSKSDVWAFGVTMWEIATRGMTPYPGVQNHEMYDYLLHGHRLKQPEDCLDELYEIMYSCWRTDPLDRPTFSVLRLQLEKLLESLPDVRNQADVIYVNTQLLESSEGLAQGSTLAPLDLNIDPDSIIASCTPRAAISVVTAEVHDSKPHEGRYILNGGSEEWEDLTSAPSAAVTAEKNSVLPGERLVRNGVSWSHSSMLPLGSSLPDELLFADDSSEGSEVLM
Fyn, sequence (P06241 whole entry, looked up): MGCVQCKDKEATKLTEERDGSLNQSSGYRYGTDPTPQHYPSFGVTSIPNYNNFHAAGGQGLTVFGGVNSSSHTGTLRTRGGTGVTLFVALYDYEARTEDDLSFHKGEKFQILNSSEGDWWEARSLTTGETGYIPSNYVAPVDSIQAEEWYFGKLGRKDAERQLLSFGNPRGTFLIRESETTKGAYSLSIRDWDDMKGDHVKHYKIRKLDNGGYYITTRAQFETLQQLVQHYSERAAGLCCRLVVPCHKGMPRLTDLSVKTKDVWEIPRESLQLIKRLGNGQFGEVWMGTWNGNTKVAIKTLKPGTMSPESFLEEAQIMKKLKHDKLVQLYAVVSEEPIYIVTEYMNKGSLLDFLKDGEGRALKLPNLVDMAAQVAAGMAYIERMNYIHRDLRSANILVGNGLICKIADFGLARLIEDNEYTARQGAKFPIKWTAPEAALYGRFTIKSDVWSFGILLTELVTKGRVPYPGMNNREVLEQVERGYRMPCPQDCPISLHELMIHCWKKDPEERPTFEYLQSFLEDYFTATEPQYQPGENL

| Sequence | SH2 binding enrichment (c-Src SH2) | SH2 binding enrichment (Grb2 SH2) | SH2 binding enrichment (SHP2-C SH2) | phosphorylation enrichment (MERTK) | phosphorylation enrichment (Fer (mouse)) | phosphorylation enrichment (c-Abl (mouse)) | phosphorylation enrichment (c-Src) | phosphorylation enrichment (FGFR1) | phosphorylation enrichment (EPHB1) | phosphorylation enrichment (Fyn) | phosphorylation enrichment (Hck) | phosphorylation enrichment (EPHB2) | phosphorylation enrichment (AncSZ) | phosphorylation enrichment (Fes) | phosphorylation enrichment (FGFR3) | phosphorylation enrichment (Jak2) |
| --- | --- | --- | --- | --- | --- | --- | --- | --- | --- | --- | --- | --- | --- | --- | --- | --- |
| MQMEEYRGRVE [BTNL2_Y91_W94R] | 0.408 | 0.785 | 0.871 | 0.383 | 0.424 | 0.458 | 0.437 | 0.411 | 0.421 | 0.379 | 0.459 | 0.39 | 0.755 | 0.874 | 0.539 | 0.573 |
| GREAEYSEKHG [EPHB4_Y574_D576E] | 0.442 | 0.742 | 0.476 | 0.368 | 0.398 | 0.631 | 0.396 | 0.418 | 0.514 | 0.354 | 0.444 | 0.487 | 0.681 | 0.697 | 0.544 | 0.59 |
| GEEIKDMLWLS [OTC_Y55_Y55D] | 0.501 | 0.807 | 0.584 | 0.425 | 0.428 | 0.672 | 0.361 | 0.475 | 0.448 | 0.475 | 0.446 | 0.462 | 0.913 | 1 | 0.566 | 0.822 |
| SSFDTYHLSRE [KIR3DL2_Y253_I252T_YF] | 0.701 | 0.764 | 0.824 | 0.613 | 0.539 | 0.613 | 3.31 | 0.615 | 0.528 | 4.75 | 3.51 | 0.616 | 0.756 | 0.842 | 0.595 | 0.7 |
| APSEFYDGDHD [HDAC3_Y414_N411S] | 0.544 | 1.1 | 0.733 | 0.51 | 0.639 | 0.932 | 0.565 | 0.78 | 0.659 | 0.615 | 0.528 | 0.55 | 1.3 | 1.35 | 0.923 | 1.32 |
| GGQVFYNSEFG [FLT4_Y1333_YF] | 0.45 | 0.623 | 0.735 | 0.546 | 0.53 | 0.884 | 0.838 | 0.551 | 0.619 | 0.479 | 0.532 | 0.617 | 1.09 | 1.11 | 0.766 | 1.25 |
| INASGYRVGPA [ACSM1_Y477_I479V] | 0.358 | 0.853 | 0.691 | 0.49 | 0.563 | 0.615 | 0.51 | 0.595 | 0.564 | 0.411 | 0.643 | 0.485 | 0.652 | 0.901 | 0.629 | 0.523 |
| GPGLVYGVANK [FLNB_Y1833] | 0.551 | 0.732 | 0.643 | 0.422 | 0.51 | 0.545 | 2.83 | 0.648 | 0.421 | 1.59 | 3.44 | 0.405 | 0.531 | 0.689 | 0.483 | 0.718 |
| HYEFKYVINAI [MAOA_Y268_C266F] | 0.582 | 0.868 | 0.69 | 0.572 | 0.74 | 1.28 | 0.536 | 0.471 | 1.05 | 0.481 | 0.489 | 0.782 | 1.75 | 1.72 | 0.964 | 1.55 |
| QGIIIYRAAYF [SLC25A4_Y187] | 0.515 | 1.01 | 0.642 | 0.541 | 0.773 | 1.28 | 0.544 | 0.688 | 0.945 | 0.574 | 0.639 | 0.767 | 1.32 | 1.91 | 1.39 | 1.13 |
| KNNSIYVVANI [VNN1_Y134] | 0.671 | 1.08 | 1.05 | 0.885 | 0.727 | 0.8 | 0.705 | 0.701 | 0.74 | 0.765 | 0.888 | 0.761 | 0.982 | 1.14 | 0.821 | 1.04 |
| LKGQVYILGGE [ASS1_Y359_R363G] | 0.529 | 0.952 | 0.812 | 1.05 | 1.02 | 1.32 | 1.13 | 1.06 | 1.13 | 0.995 | 0.824 | 1.07 | 1.33 | 1.93 | 1.28 | 1.62 |
| KLKEKYQKDIA [HMGB1_Y155_E156Q] | 1.11 | 1.24 | 1.91 | 0.557 | 0.522 | 1.24 | 0.582 | 0.565 | 0.454 | 0.465 | 0.487 | 0.588 | 0.57 | 0.996 | 1.21 | 1.47 |
| SMEMKYLEEKN [ZAP70_Y451_G448E] | 0.549 | 0.906 | 0.786 | 0.48 | 0.572 | 1.17 | 0.609 | 0.535 | 0.825 | 0.706 | 0.548 | 0.659 | 1.15 | 1.47 | 1.07 | 1.22 |
| SLIDGYYRLTA [JAK2_Y372] | 2.57 | 0.986 | 6.44 | 0.436 | 0.427 | 0.522 | 0.451 | 2.49 | 0.457 | 0.467 | 0.475 | 0.495 | 0.92 | 0.926 | 1.69 | 7.08 |
| CKLCQYYLDHL [ATRX_Y1849_Y1847C] | 1.39 | 1.54 | 1.67 | 0.419 | 0.423 | 0.593 | 1.57 | 0.579 | 0.673 | 0.515 | 0.437 | 0.419 | 0.795 | 0.779 | 0.613 | 0.806 |
| RGNKEYKEEKR [LENG1_Y96_E97K] | 0.975 | 1.25 | 1.42 | 0.392 | 0.303 | 0.688 | 0.398 | 0.606 | 0.369 | 0.399 | 0.425 | 0.423 | 0.462 | 0.861 | 0.735 | 0.511 |

| Sequence | SH2 binding enrichment (c-Src SH2) | SH2 binding enrichment (Grb2 SH2) | SH2 binding enrichment (SHP2-C SH2) | phosphorylation enrichment (MERTK) | phosphorylation enrichment (Fer (mouse)) | phosphorylation enrichment (c-Abl (mouse)) | phosphorylation enrichment (c-Src) | phosphorylation enrichment (FGFR1) | phosphorylation enrichment (EPHB1) | phosphorylation enrichment (Fyn) | phosphorylation enrichment (Hck) | phosphorylation enrichment (EPHB2) | phosphorylation enrichment (AncSZ) | phosphorylation enrichment (Fes) | phosphorylation enrichment (FGFR3) | phosphorylation enrichment (Jak2) |
| --- | --- | --- | --- | --- | --- | --- | --- | --- | --- | --- | --- | --- | --- | --- | --- | --- |
| SIKDKHVTALF [KCNH2_Y611_Y611H_YF] | 0.443 | 0.659 | 0.456 | 0.469 | 0.399 | 0.486 | 0.52 | 0.418 | 0.354 | 0.417 | 0.463 | 0.42 | 0.576 | 0.633 | 0.435 | 0.441 |
| TTICKYSTPME [GUCY2C_Y839] | 1.05 | 0.924 | 0.967 | 0.446 | 0.351 | 0.63 | 0.474 | 0.608 | 0.395 | 0.35 | 0.413 | 0.488 | 0.798 | 0.801 | 0.567 | 0.756 |
| TPSGNYVACGG [GNB1_Y111_A106T] | 1.73 | 1.14 | 1.25 | 0.516 | 0.415 | 0.677 | 0.783 | 0.555 | 0.771 | 0.447 | 0.488 | 0.704 | 0.614 | 0.8 | 0.436 | 0.602 |
| RGMVMYTSKDR [ZG16B_Y136] | 0.648 | 0.697 | 0.584 | 0.528 | 0.413 | 0.428 | 0.533 | 0.523 | 0.623 | 0.493 | 0.614 | 0.597 | 0.941 | 0.857 | 0.645 | 0.744 |
| GNEEAYGRSHI [FAM171B_Y522] | 0.444 | 0.796 | 0.801 | 0.455 | 0.456 | 0.706 | 0.471 | 0.378 | 0.448 | 0.425 | 0.471 | 0.438 | 0.825 | 0.823 | 0.575 | 0.905 |
| FSNKLYFQLEQ [PDPR_Y109_YF] | 0.523 | 0.626 | 0.562 | 1.64 | 0.661 | 0.796 | 0.621 | 3.05 | 0.849 | 0.636 | 0.694 | 0.664 | 1.35 | 1.19 | 2.7 | 1.49 |
| ASQEEYSAMRD [KRAS_Y64_G60S] | 0.77 | 0.812 | 0.502 | 0.496 | 0.435 | 0.681 | 0.508 | 0.714 | 0.577 | 0.487 | 0.531 | 0.58 | 1.08 | 0.946 | 0.68 | 0.976 |
| EFGFRYELVQF [UGGT2_Y1289_Y1285F_YF] | 1.4 | 0.849 | 0.859 | 0.375 | 0.887 | 0.64 | 0.315 | 0.477 | 0.592 | 0.433 | 0.509 | 0.585 | 1.26 | 1.21 | 0.853 | 1.11 |
| ALTRSYVREKV [CYP2C8_Y243_I244V] | 0.495 | 0.804 | 0.551 | 0.459 | 0.398 | 0.617 | 0.316 | 0.364 | 0.42 | 0.387 | 0.437 | 0.462 | 0.571 | 0.532 | 0.522 | 0.353 |
| VVGMLYVGGLP [LAMA2_Y2886] | 0.461 | 0.78 | 0.785 | 0.449 | 0.486 | 0.742 | 0.388 | 0.491 | 0.727 | 0.455 | 0.454 | 0.644 | 0.999 | 1.2 | 0.683 | 1.08 |
| DKATEYIQFMR [MAX_Y70_YF] | 0.565 | 0.887 | 0.608 | 0.439 | 0.439 | 0.803 | 0.703 | 0.589 | 0.528 | 0.675 | 0.69 | 0.549 | 1 | 1.01 | 0.655 | 0.793 |
| ATQDNYVLEVR [PTPRZ1_Y2179_D2178N] | 0.628 | 0.651 | 0.557 | 0.45 | 0.486 | 0.6 | 0.38 | 0.489 | 0.502 | 0.452 | 0.411 | 0.458 | 0.934 | 1.08 | 0.676 | 0.821 |
| VDFQPYRKHKF [TEX37_Y28_YF] | 0.844 | 0.991 | 0.87 | 0.472 | 0.463 | 0.595 | 0.377 | 0.401 | 0.403 | 0.45 | 0.451 | 0.32 | 0.553 | 0.639 | 0.587 | 0.479 |
| WQQQSYLGSGI [CTNNB1_Y30_D32G] | 0.499 | 0.858 | 0.664 | 0.357 | 0.389 | 0.521 | 0.421 | 0.634 | 0.362 | 0.372 | 0.471 | 0.469 | 0.748 | 0.61 | 0.493 | 0.544 |
| VHLYAYDWISI [BEST1_Y227_G222V] | 1.18 | 1.48 | 1.42 | 8.36 | 13 | 0.865 | 1.44 | 5.73 | 7.2 | 1.18 | 1.83 | 5.88 | 2.32 | 3.05 | 4.71 | 1.33 |
| SECCKYKIDNL [OSMR_Y689_P694L] | 0.43 | 0.739 | 0.477 | 0.432 | 0.473 | 0.748 | 0.436 | 0.462 | 0.551 | 0.446 | 0.428 | 0.384 | 0.864 | 0.939 | 0.685 | 0.823 |
